Source: patent US20100196385A1 (AstraZeneca / MedImmune, published 2010)

Columns and labels:
[1] = target: T1, human Jagged1 (human, UniProt P78504 34-1218); assay: FACS, 5 µg/ml, 293T cells with human Jagged1
T1 construct: whole, on cells
Outline: (§1)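 Antibodies at 5 or 15 μg/ml final in PBS/2% FCS incubated 1 h at 4 °C with transfected cells. Binding taken as the geometric mean fluorescence shift in Jagged1- or Dll1-transfected cells versus mock-transfected cells.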

[2] = target: T1, human Jagged1; assay: FACS, 1 µg/ml, 293T cells with human Jagged1 vs mock
[3] = target: T1, human Jagged1; assay: FACS, 5 µg/ml, 293T cells with human Jagged1 vs mock
Outline: as §1

[4] = target: T1, human Jagged1; assay: FACS, 0.2 µg/ml, 293T cells with human Jagged1 vs mock
[5] = target: T2, human Dll1 (human, UniProt O00548 18-723); assay: FACS, up to 300 µg/ml, HEK-293 cells stably overexpressing human Dll1
T2 construct: whole, on cells
T2 sequence (looked up): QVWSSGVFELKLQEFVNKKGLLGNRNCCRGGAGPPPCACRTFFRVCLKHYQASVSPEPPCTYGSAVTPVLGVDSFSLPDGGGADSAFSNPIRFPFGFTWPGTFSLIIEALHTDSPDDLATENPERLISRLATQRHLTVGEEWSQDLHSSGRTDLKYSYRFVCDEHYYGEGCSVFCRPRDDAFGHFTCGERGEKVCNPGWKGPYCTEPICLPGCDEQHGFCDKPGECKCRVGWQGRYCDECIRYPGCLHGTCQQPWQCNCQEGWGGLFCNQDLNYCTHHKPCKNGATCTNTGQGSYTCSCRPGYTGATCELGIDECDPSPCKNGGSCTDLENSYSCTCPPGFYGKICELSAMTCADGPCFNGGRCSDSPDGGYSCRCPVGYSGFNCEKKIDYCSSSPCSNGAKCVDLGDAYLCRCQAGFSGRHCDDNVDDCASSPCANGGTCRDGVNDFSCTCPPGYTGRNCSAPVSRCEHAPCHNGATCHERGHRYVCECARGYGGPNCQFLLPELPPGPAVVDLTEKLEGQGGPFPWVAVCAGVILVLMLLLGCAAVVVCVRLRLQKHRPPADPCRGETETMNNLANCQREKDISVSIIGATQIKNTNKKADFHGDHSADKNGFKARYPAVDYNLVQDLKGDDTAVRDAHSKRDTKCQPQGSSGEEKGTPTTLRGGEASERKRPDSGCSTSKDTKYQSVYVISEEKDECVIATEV

[6] = target: T1, human Jagged1; assay: FACS, up to 300 µg/ml, HEK-293 cells stably overexpressing human Jagged1
[7] = target: T3, full length human DLL4 (human, UniProt Q9NR61 27-685); assay: FACS competition, unlabeled antibody vs competitor Alexa-647 4B4, HEK293 cells with human DLL4
T3 construct: whole, on cells; also called native DLL4 expressed in HEK293 cells
T3 sequence (Q9NR61 27-685): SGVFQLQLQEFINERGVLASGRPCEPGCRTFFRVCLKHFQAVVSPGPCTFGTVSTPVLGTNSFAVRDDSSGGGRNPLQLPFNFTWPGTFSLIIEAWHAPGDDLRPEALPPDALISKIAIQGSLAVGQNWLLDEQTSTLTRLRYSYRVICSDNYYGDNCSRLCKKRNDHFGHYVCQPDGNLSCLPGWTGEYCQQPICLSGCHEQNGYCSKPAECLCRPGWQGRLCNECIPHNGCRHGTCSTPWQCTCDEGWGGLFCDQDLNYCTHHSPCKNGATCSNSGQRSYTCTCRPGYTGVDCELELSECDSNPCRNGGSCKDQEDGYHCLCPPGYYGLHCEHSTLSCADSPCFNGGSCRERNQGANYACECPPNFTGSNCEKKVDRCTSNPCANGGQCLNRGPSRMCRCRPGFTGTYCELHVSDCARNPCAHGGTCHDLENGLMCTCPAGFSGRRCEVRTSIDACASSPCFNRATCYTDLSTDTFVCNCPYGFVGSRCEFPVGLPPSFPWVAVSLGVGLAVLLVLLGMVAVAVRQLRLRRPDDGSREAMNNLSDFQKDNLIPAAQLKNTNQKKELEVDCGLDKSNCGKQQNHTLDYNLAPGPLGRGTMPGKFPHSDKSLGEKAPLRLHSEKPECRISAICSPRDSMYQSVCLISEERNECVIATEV
Experimental: (§2) The ability of the purified DLL4 antibodies to inhibit the binding of other DLL4 antibodies to human DLL4 was assessed using a FACS assay. Briefly, antibodies were directly labelled with Alexa-647 using a commercially available labelling kit (e.g. Molecular Probes catalog #A30009, A-20186) as per the manufacturer's instructions. To determine the level of cross-competition, unlabelled anti-DLL4 antibodies (final concentration: 10-0.01 μg/ml) diluted in PBS containing 2% FCS were added to DLL4-expressing HEK 293 cells (as described in example 6; 50000 cells/well diluted in PBS containing 2% FCS) and incubated for 1 h at 4° C. Subsequently, Alexa-647 labeled anti-DLL4 antibodies were added at a final concentration of 0.1 μg/ml and plates were incubated for a further 1 h at 4° C. prior to washing and reading on a FACSCalibur instrument. Data that summarizes the ability of unlabeled antibodies (10, 1, 0.1 μg/ml) to compete with labeled 21H3RK for binding to human DLL4 is included in FIG. 3. Additional data that summarizes the ability of unlabeled antibodies to compete with labeled 21H3RK and 4B4 for binding to human DLL4 is included in Table 22.

[8] = target: T3, full length human DLL4; assay: FACS competition, unlabeled antibody vs competitor Alexa-647 21H3RK, HEK293 cells with human DLL4
Experimental: as §2

[9] = target: T2, human Dll1; assay: Flow cytometry on HEK293F cells transiently expressing HuDll1; 21H3RK, goat anti-human IgG-FITC
Excerpt: This specificity is employed to deduce the binding epitope of Mab 21H3RK to human DLL4. Chimeric variants were engineered with portions of the extracellular domain of DLL4 replaced with the corresponding segments of DLL1. […] The resulting variants were cloned into a mammalian expression vector encoding a human cytomegalovirus major immediate early (hCMVie) enhancer, promoter and 5′-untranslated region for transient mammalian expression. The chimeric variants were transiently expressed in HEK293F cells as membrane-bound proteins for flow cytometric characterization with Mab 21H3RK. 48 h post-transfection, HEK293F transfectants were incubated with 1 μg/ml of Mab 21H3RK for 1 h on ice in PBS, washed, then incubated with goat anti-human IgG-FITC (Jackson ImmunoResearch Laboratories, PA) and analyzed with a LSRII flow cytometer (BD Biosciences, CA). The expression levels of all chimeric variants were is monitored by incubating with a mixture of both goat anti-mouse DLL4 (which also recognizes human DLL4) and goat anti-human DLL1 polyclonal antibodies (both from R&D Systems., MN), then detected with porcine anti-goat IgG-PE (Invitrogen, CA).

[10] = target: T3, full length human DLL4; assay: FACS titration, HEK293 cells with human DLL4
Experimental: The binding affinities of the purified antibodies for DLL4 was estimated using is both FACS and BIAcore techniques. […] The cells were then washed and incubated with goat anti-human IgG-Fc-Cy5+5 μg/mL 7-Amino-Actinomycin (7AAD) for 30 minutes at 4° C.
In this equation, F=mean fluorescence, LT=total molecular mAb concentration, P′=proportionality constant that relates arbitrary fluorescence units to bound mAb, M=cellular concentration in molarity, n=number of receptors per cell, B=background signal, and KD=equilibrium dissociation constant. For each mAb titration curve an estimate for KD is obtained as P′, n, B, and KD are allowed to float freely in the nonlinear analysis. Table 20 summarizes the affinity estimates for the anti-DLL4 antibodies for human and cynomolgus monkey DLL4 derived using the methodology described above

[11] = target: T3, full length human DLL4; assay: FACS competition vs human Notch1/Fc, HEK293 cells with human DLL4
Experimental: (§3) Further experiments were performed on selected antibodies using HEK293 cells that were stably transfected with either human, mouse or cynomolgus monkey DLL4 using retroviral constructs. In these experiments, anti-DLL4 antibodies (final concentration: 10-0.01 μg/ml) diluted in PBS containing 2% FCS were added to DLL4-expressing HEK 293 cells (50000 cells/well diluted in PBS containing 2% FCS) and incubated for 1 h at 4° C. Subsequently, Alexa-647 labeled human, rat or APC labeled mouse Notch1/Fc (e.g. R&D Systems, catalog #3647-TK-050, 1057-TK-050, 5267-TK-050, respectively) was added at a final concentration of 0.01-0.5 μg/ml and plates were incubated for a further 2 h at 4° C. prior to washing and reading on a FACSCalibur instrument.

[12] = target: T4, full length mouse DLL4 (mouse, UniProt Q9JI71 27-686); assay: FACS competition vs mouse Notch1/Fc, HEK293 cells with mouse DLL4
T4 construct: whole, on cells
T4 sequence (Q9JI71 27-686): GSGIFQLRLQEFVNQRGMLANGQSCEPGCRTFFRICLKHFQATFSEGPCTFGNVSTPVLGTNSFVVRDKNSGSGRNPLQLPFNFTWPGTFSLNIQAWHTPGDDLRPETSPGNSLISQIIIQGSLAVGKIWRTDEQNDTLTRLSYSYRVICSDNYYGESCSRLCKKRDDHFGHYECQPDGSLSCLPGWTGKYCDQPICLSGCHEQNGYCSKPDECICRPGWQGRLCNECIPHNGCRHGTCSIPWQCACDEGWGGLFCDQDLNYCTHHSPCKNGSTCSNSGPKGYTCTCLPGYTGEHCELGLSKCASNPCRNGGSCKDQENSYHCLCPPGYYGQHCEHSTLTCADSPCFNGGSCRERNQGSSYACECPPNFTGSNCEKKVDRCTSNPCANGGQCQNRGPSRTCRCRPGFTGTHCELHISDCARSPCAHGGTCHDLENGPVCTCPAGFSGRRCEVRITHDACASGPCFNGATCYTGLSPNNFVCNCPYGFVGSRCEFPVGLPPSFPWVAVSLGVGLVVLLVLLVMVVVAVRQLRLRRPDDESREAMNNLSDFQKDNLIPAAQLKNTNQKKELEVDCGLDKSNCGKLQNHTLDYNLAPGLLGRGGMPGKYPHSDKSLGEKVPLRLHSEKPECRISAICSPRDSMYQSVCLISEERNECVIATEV
Experimental: as §3

[13] = target: T5, human soluble DLL4 (R&D systems catalog #1056-D4-050) (human, UniProt Q9NR61 27-524); assay: Biacore T100, antibody immobilised, soluble human DLL4 as analyte
T5 construct: Catalog number as printed; perhaps the same product as #1506-D4; also called antigen DLL4
T5 sequence (Q9NR61 27-524 limits assumed): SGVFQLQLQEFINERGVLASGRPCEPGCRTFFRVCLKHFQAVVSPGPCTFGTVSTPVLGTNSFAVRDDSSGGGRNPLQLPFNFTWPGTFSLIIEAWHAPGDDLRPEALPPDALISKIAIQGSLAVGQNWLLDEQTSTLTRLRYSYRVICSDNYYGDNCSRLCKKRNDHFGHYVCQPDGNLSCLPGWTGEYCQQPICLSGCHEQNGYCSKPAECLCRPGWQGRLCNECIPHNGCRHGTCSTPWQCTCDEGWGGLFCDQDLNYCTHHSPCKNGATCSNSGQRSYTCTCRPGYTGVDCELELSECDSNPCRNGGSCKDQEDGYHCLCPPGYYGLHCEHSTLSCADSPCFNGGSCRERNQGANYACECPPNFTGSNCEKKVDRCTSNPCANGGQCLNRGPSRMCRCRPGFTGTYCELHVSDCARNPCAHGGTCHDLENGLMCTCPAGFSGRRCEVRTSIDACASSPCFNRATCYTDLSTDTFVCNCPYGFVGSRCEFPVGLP
Experimental: For Biacore analysis, each purified anti-DLL4 antibody was immobilized on a CM5 sensor chip within a T100 using standard amine coupling. Immobilization levels were kept below 200 RU. The concentration of DLL4 was determined by UV-VIS spectroscopy using a molar absorptivity at 280 nm of 110, 440 M⁻¹cm⁻¹, which was calculated from the sequence of the protein using a method developed by Pace et al. (G. R. Grimsley and C. N. Pace (2003) in Current Protocols in Protein Science (John Wiley & Sons, Inc.), 3.1.1-3.1.9). The antigen DLL4 (R&D systems; human catalog #1056-D4-050 or mouse, catalog #1389-D4-050) was diluted to a starting concentration of 32-64 nM and tested in a 3-fold dilution series in triplicate. The running buffer contained HBS-P with 0.1 mg/ml BSA and binding responses were collected at 23° C. Bound complexes were regenerated with a 15 s pulse of 10 mM of sodium hydroxide. The response data were globally fitted with a simple 1:1 interaction model and Table 20 summarizes the kₐ, kd and KD estimates obtained for the anti-DLL4 antibodies when binding to human soluble DLL4 was assessed.

T1 sequence (P78504 34-1218): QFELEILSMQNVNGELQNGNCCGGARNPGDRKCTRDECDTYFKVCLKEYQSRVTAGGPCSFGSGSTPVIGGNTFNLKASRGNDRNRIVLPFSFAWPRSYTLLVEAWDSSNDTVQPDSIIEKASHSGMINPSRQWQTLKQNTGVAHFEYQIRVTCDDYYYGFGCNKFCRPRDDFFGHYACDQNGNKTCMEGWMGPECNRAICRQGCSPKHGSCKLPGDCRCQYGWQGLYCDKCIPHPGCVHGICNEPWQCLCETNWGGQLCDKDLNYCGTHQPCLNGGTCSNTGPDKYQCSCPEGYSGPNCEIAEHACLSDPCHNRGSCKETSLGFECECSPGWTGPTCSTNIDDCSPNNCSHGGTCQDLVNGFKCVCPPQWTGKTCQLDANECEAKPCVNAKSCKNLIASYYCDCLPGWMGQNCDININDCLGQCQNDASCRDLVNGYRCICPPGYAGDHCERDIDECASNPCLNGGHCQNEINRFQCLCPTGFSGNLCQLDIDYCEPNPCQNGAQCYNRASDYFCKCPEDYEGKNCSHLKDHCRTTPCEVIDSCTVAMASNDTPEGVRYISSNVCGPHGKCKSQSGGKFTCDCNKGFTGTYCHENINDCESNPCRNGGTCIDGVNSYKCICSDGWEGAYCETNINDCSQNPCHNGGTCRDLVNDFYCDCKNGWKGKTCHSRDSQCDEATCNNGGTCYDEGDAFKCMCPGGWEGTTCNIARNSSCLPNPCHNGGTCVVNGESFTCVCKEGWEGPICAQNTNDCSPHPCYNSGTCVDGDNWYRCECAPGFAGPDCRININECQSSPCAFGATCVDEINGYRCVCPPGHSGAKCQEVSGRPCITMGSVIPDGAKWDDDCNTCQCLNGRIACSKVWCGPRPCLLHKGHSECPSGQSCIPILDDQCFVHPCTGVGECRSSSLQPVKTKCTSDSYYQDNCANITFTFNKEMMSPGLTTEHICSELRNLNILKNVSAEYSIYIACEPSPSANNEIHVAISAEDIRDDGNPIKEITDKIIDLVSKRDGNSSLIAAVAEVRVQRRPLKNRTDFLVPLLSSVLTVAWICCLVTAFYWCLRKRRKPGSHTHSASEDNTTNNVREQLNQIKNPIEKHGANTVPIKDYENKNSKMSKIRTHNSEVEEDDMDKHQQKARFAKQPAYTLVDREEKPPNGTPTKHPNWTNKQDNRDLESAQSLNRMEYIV

B1: human Notch3/Fc chimera (Fc fusion, UniProt Q9UM47 40-467, looked up)
chain: APPCLDGSPCANGGRCTQLPSREAACLCPPGWVGERCQLEDPCHSGPCAGRGVCQSSVVAGTARFSCRCPRGFRGPDCSLPDPCLSSPCAHGARCSVGPDGRFLCSCPPGYQGRSCRSDVDECRVGEPCRHGGTCLNTPGSFRCQCPAGYTGPLCENPAVPCAPSPCRNGGTCRQSGDLTYDCACLPGFEGQNCEVNVDDCPGHRCLNGGTCVDGVNTYNCQCPPEWTGQFCTEDVDECQLQPNACHNGGTCFNTLGGHSCVCVNGWTGESCSQNIDDCATAVCFHGATCHDRVASFYCACPMGKTGLLCHLDDACVSNPCHEDAICDTNPVNGRAICTCPPGFTGGACDQDVDECSIGANPCEHLGRCVNTQGSFLCQCGRGYTGPRCETDVNECLSGPCRNQATCLDRIGQFTCICMAGFTGTYCE
notes: Positive control for Jagged1; also called N3 Fc; Fc part of the bought chimera not given, not described
Jagged1/293T X Geo mean [1]: 51
Jagged1/mock ratio [2]: 2.88
Jagged1/mock ratio [3]: 3.87
Jagged1/mock ratio [4]: 1.96

B2: 21H3RK (antibody, V domains shown)
VH: QVQLVQSGAEVKKPGASVKVSCKASGYTFTNYGITWVRQAPGQGPEWMGWISAYNGNTNYAQKLQDRVTVTTDTSTSTAYMELRSLRSDDTAVYYCARDRVPRIPVTTEAFDIWGQGTMVTVSS
VL: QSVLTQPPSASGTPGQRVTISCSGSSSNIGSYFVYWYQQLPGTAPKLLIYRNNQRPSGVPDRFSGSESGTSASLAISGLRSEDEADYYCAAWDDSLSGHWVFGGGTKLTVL
notes: also called Mab 21H3RK; Monoclonal 21H3RK
fold over background [5]: < 2.5 fold
fold over background [6]: < 2.5 fold
IC50 [7]: 0.223 mg/L
IC50 [8]: 0.214 mg/L
binding result [9]: no binding (tested: 1 ug/ml (single concentration))

B3: 21H3RK IgG1 (antibody, V domains shown)
VH: B2 VH
VL: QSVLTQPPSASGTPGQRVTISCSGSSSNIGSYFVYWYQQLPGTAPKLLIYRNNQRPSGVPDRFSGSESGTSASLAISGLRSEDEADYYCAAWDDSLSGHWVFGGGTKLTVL
notes: IgG1; VL is 21H3 VLOP1 (R107K)
Kd [10]: 0.155 nM
IC50 [11]: 0.58 nM
IC50 [12]: 42 nM
Kd [13]: 0.493 nM
koff [13]: 0.000166 s⁻¹
kon [13]: 337000 M⁻¹ s⁻¹
